Laboratory results from FireProtDB (doi:10.1073/pnas.84.13.4441).

B1: Tryptophan synthase alpha chain, P0A877 (parent)
chain: MERYESLFAQLKERKEGAFVPFVTLGDPGIEQSLKIIDTLIEAGADALELGIPFSDPLADGPTIQNATLRAFAAGVTPAQCFEMLALIRQKHPTIPIGLLMYANLVFNKGIDEFYAQCEKVGVDSVLVADVPVEESAPFRQAALRHNVAPIFICPPNADDDLLRQIASYGRGYTYLLSRAGVTGAENRAALPLNHLVAKLKEYNAAPPLQGFGISAPDQVKAAIDAGAAGAISGSAIVKIIEQHINEPEKMLAALKVFVQPMKAATRS

Variants of: B1
Details: Escherichia coli (strain K12), 25 °C, GdnHCl, CD, Potassium phosphate 20 mM, reversible: yes, structure 1WQ5, whole UniProt chain shown

| Variant | ddG of mutation (higher = less stable) (pH 7) | unfolding free energy (pH 7) | ddG of mutation (higher = less stable) (pH 9) | unfolding free energy (pH 9) |
| --- | --- | --- | --- | --- |
| MERYESLFAQLKERKEGAFVPFVTLGDPGIEQSLKIIDTLIEAGADALALGIPFSDPLADGPTIQNATLRAFAAGVTPAQCFEMLALIRQKHPTIPIGLLMYANLVFNKGIDEFYAQCEKVGVDSVLVADVPVEESAPFRQAALRHNVAPIFICPPNADDDLLRQIASYGRGYTYLLSRAGVTGAENRAALPLNHLVAKLKEYNAAPPLQGFGISAPDQVKAAIDAGAAGAISGSAIVKIIEQHINEPEKMLAALKVFVQPMKAATRS [E49A] | 0.08 kcal/mol | 18.1 kcal/mol | -0.59 kcal/mol | 18.6 kcal/mol |
| MERYESLFAQLKERKEGAFVPFVTLGDPGIEQSLKIIDTLIEAGADALCLGIPFSDPLADGPTIQNATLRAFAAGVTPAQCFEMLALIRQKHPTIPIGLLMYANLVFNKGIDEFYAQCEKVGVDSVLVADVPVEESAPFRQAALRHNVAPIFICPPNADDDLLRQIASYGRGYTYLLSRAGVTGAENRAALPLNHLVAKLKEYNAAPPLQGFGISAPDQVKAAIDAGAAGAISGSAIVKIIEQHINEPEKMLAALKVFVQPMKAATRS [E49C] | -0.01 kcal/mol | 18.2 kcal/mol | 0.13 kcal/mol | 17.8 kcal/mol |
| MERYESLFAQLKERKEGAFVPFVTLGDPGIEQSLKIIDTLIEAGADALDLGIPFSDPLADGPTIQNATLRAFAAGVTPAQCFEMLALIRQKHPTIPIGLLMYANLVFNKGIDEFYAQCEKVGVDSVLVADVPVEESAPFRQAALRHNVAPIFICPPNADDDLLRQIASYGRGYTYLLSRAGVTGAENRAALPLNHLVAKLKEYNAAPPLQGFGISAPDQVKAAIDAGAAGAISGSAIVKIIEQHINEPEKMLAALKVFVQPMKAATRS [E49D] | 0.8 kcal/mol | 17.4 kcal/mol | 0.03 kcal/mol | 17.9 kcal/mol |
| MERYESLFAQLKERKEGAFVPFVTLGDPGIEQSLKIIDTLIEAGADALFLGIPFSDPLADGPTIQNATLRAFAAGVTPAQCFEMLALIRQKHPTIPIGLLMYANLVFNKGIDEFYAQCEKVGVDSVLVADVPVEESAPFRQAALRHNVAPIFICPPNADDDLLRQIASYGRGYTYLLSRAGVTGAENRAALPLNHLVAKLKEYNAAPPLQGFGISAPDQVKAAIDAGAAGAISGSAIVKIIEQHINEPEKMLAALKVFVQPMKAATRS [E49F] | 0.86 kcal/mol | 17.3 kcal/mol | – | – |
| MERYESLFAQLKERKEGAFVPFVTLGDPGIEQSLKIIDTLIEAGADALGLGIPFSDPLADGPTIQNATLRAFAAGVTPAQCFEMLALIRQKHPTIPIGLLMYANLVFNKGIDEFYAQCEKVGVDSVLVADVPVEESAPFRQAALRHNVAPIFICPPNADDDLLRQIASYGRGYTYLLSRAGVTGAENRAALPLNHLVAKLKEYNAAPPLQGFGISAPDQVKAAIDAGAAGAISGSAIVKIIEQHINEPEKMLAALKVFVQPMKAATRS [E49G] | -0.08 kcal/mol | 18.2 kcal/mol | -0.6 kcal/mol | 18.6 kcal/mol |
| MERYESLFAQLKERKEGAFVPFVTLGDPGIEQSLKIIDTLIEAGADALHLGIPFSDPLADGPTIQNATLRAFAAGVTPAQCFEMLALIRQKHPTIPIGLLMYANLVFNKGIDEFYAQCEKVGVDSVLVADVPVEESAPFRQAALRHNVAPIFICPPNADDDLLRQIASYGRGYTYLLSRAGVTGAENRAALPLNHLVAKLKEYNAAPPLQGFGISAPDQVKAAIDAGAAGAISGSAIVKIIEQHINEPEKMLAALKVFVQPMKAATRS [E49H] | -0.33 kcal/mol | 18.5 kcal/mol | -0.67 kcal/mol | 18.6 kcal/mol |
| MERYESLFAQLKERKEGAFVPFVTLGDPGIEQSLKIIDTLIEAGADALILGIPFSDPLADGPTIQNATLRAFAAGVTPAQCFEMLALIRQKHPTIPIGLLMYANLVFNKGIDEFYAQCEKVGVDSVLVADVPVEESAPFRQAALRHNVAPIFICPPNADDDLLRQIASYGRGYTYLLSRAGVTGAENRAALPLNHLVAKLKEYNAAPPLQGFGISAPDQVKAAIDAGAAGAISGSAIVKIIEQHINEPEKMLAALKVFVQPMKAATRS [E49I] | -0.46 kcal/mol | 18.6 kcal/mol | -1.24 kcal/mol | 19.2 kcal/mol |
| MERYESLFAQLKERKEGAFVPFVTLGDPGIEQSLKIIDTLIEAGADALKLGIPFSDPLADGPTIQNATLRAFAAGVTPAQCFEMLALIRQKHPTIPIGLLMYANLVFNKGIDEFYAQCEKVGVDSVLVADVPVEESAPFRQAALRHNVAPIFICPPNADDDLLRQIASYGRGYTYLLSRAGVTGAENRAALPLNHLVAKLKEYNAAPPLQGFGISAPDQVKAAIDAGAAGAISGSAIVKIIEQHINEPEKMLAALKVFVQPMKAATRS [E49K] | -0.2 kcal/mol | 18 kcal/mol | -0.39 kcal/mol | 18.4 kcal/mol |
| MERYESLFAQLKERKEGAFVPFVTLGDPGIEQSLKIIDTLIEAGADALLLGIPFSDPLADGPTIQNATLRAFAAGVTPAQCFEMLALIRQKHPTIPIGLLMYANLVFNKGIDEFYAQCEKVGVDSVLVADVPVEESAPFRQAALRHNVAPIFICPPNADDDLLRQIASYGRGYTYLLSRAGVTGAENRAALPLNHLVAKLKEYNAAPPLQGFGISAPDQVKAAIDAGAAGAISGSAIVKIIEQHINEPEKMLAALKVFVQPMKAATRS [E49L] | -0.44 kcal/mol | 18.6 kcal/mol | -1.04 kcal/mol | 19 kcal/mol |
| MERYESLFAQLKERKEGAFVPFVTLGDPGIEQSLKIIDTLIEAGADALMLGIPFSDPLADGPTIQNATLRAFAAGVTPAQCFEMLALIRQKHPTIPIGLLMYANLVFNKGIDEFYAQCEKVGVDSVLVADVPVEESAPFRQAALRHNVAPIFICPPNADDDLLRQIASYGRGYTYLLSRAGVTGAENRAALPLNHLVAKLKEYNAAPPLQGFGISAPDQVKAAIDAGAAGAISGSAIVKIIEQHINEPEKMLAALKVFVQPMKAATRS [E49M] | 0.05 kcal/mol | 18.1 kcal/mol | -0.52 kcal/mol | 18.5 kcal/mol |
| MERYESLFAQLKERKEGAFVPFVTLGDPGIEQSLKIIDTLIEAGADALPLGIPFSDPLADGPTIQNATLRAFAAGVTPAQCFEMLALIRQKHPTIPIGLLMYANLVFNKGIDEFYAQCEKVGVDSVLVADVPVEESAPFRQAALRHNVAPIFICPPNADDDLLRQIASYGRGYTYLLSRAGVTGAENRAALPLNHLVAKLKEYNAAPPLQGFGISAPDQVKAAIDAGAAGAISGSAIVKIIEQHINEPEKMLAALKVFVQPMKAATRS [E49P] | 0 kcal/mol | 18.2 kcal/mol | -0.8 kcal/mol | 18.8 kcal/mol |
| MERYESLFAQLKERKEGAFVPFVTLGDPGIEQSLKIIDTLIEAGADALQLGIPFSDPLADGPTIQNATLRAFAAGVTPAQCFEMLALIRQKHPTIPIGLLMYANLVFNKGIDEFYAQCEKVGVDSVLVADVPVEESAPFRQAALRHNVAPIFICPPNADDDLLRQIASYGRGYTYLLSRAGVTGAENRAALPLNHLVAKLKEYNAAPPLQGFGISAPDQVKAAIDAGAAGAISGSAIVKIIEQHINEPEKMLAALKVFVQPMKAATRS [E49Q] | 0.23 kcal/mol | 17.9 kcal/mol | – | – |
